The assay has as its target T1, CstF-50 (full length, affinity tag removed) (human), Q05048.
T1 chain: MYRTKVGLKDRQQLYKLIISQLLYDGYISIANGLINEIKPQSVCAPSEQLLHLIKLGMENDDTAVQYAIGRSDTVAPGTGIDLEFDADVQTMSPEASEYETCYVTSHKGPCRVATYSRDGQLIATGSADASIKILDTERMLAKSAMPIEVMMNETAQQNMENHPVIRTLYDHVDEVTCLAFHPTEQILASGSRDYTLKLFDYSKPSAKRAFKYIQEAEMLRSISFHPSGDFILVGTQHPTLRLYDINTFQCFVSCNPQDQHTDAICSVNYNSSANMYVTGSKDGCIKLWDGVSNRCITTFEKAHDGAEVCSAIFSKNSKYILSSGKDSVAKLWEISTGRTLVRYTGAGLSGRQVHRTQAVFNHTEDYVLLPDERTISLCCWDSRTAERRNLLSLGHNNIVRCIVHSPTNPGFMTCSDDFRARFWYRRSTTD
Description: SEC-MALS. Particulars: remark: other sources report otherwise. For orientation: SEC sorts molecules by how far they enter the pores of the column.

B1: CstF-50 (full length, affinity tag removed), Q05048 1-431 (natural protein)
chain: MYRTKVGLKDRQQLYKLIISQLLYDGYISIANGLINEIKPQSVCAPSEQLLHLIKLGMENDDTAVQYAIGRSDTVAPGTGIDLEFDADVQTMSPEASEYETCYVTSHKGPCRVATYSRDGQLIATGSADASIKILDTERMLAKSAMPIEVMMNETAQQNMENHPVIRTLYDHVDEVTCLAFHPTEQILASGSRDYTLKLFDYSKPSAKRAFKYIQEAEMLRSISFHPSGDFILVGTQHPTLRLYDINTFQCFVSCNPQDQHTDAICSVNYNSSANMYVTGSKDGCIKLWDGVSNRCITTFEKAHDGAEVCSAIFSKNSKYILSSGKDSVAKLWEISTGRTLVRYTGAGLSGRQVHRTQAVFNHTEDYVLLPDERTISLCCWDSRTAERRNLLSLGHNNIVRCIVHSPTNPGFMTCSDDFRARFWYRRSTTD
In general, stoichiometry N refers to the number of molecules, sites or subunits per partner or assembly. B1 gave a stoichiometry N of 2.

Source of the values: article PMC5778602.
